{"source": "paper PMC9499004", "about": "“Impact of G-Quadruplex Structures on Methylation of Model Substrates by DNA Methyltransferase Dnmt3a”", "binders": {"B1": {"name": "30Tf/30Bf (dsDNA)", "DNA 1": "CTGAATACTACTTGCGCTCTCTAACCTGAT", "DNA 2": "ATCAGGTTAGAGAGCGCAAGTAGTATTCAG"}, "B2": {"name": "76Tf/76Bf (dsDNA)", "DNA 1": "TCCTTTCGCGCTTGGATCCTATGAGCGTTACTCGAGCATATGGCTCAGCTGCCAGGCACCAGTGTCAGCGTCCTAT", "DNA 2": "ATAGGACGCTGACACTGGTGCTTGGCAGCTGAGCCATATGCTCGAGTAACGCTCATAGGATCCAAGCGCGAAAGGA"}}, "key": {"Dnmt3a-CD": {"target": "Dnmt3a-CD (murine, UniProt O88508 608-908)", "assay": "EMSA; 1 uM protein, 100 uM AdoHcy; 20 mM HEPES-NaOH pH 7.5, 100 mM KCl, 1 mM EDTA, 1 mM DTT, 100 uM AdoHcy, 25 C (EMSA: + 6% glycerol, 30 min, 60 nM DNA, gel at 4 C; FP: 10 nM DNA)", "settings": "protein: recombinant; tags: N-terminal 6xHis; chain copies: 2; label: fluorophore (FAM or TAMRA); no G4"}, "[1]": {"target": "T1, AIR-Dnmt3a2 (autoinhibition removed) (murine, UniProt O88508-2 1-689, Y303A;Y305A)", "assay": "EMSA; 1 uM protein, 100 uM AdoHcy; 20 mM HEPES-NaOH pH 7.5, 100 mM KCl, 1 mM EDTA, 1 mM DTT, 100 uM AdoHcy, 25 C (EMSA: + 6% glycerol, 30 min, 60 nM DNA, gel at 4 C; FP: 10 nM DNA)"}, "M.SssI": {"target": "M.SssI (prokaryotic (species ), UniProt P15840 1-386)", "sequence (P15840 whole entry)": "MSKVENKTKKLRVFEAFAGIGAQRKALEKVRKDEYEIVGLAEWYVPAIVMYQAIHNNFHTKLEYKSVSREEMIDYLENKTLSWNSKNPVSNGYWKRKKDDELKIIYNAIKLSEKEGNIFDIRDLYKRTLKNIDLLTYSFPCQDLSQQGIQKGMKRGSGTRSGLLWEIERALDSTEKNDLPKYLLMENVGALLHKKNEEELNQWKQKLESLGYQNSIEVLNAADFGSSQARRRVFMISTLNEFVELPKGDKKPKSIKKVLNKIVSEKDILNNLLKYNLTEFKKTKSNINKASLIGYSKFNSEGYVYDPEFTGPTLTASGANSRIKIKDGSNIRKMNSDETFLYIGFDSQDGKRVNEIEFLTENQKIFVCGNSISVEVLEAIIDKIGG", "assay": "EMSA; 100 uM AdoHcy; 20 mM HEPES-NaOH pH 7.5, 100 mM KCl, 1 mM EDTA, 1 mM DTT, 100 uM AdoHcy, 25 C (EMSA: + 6% glycerol, 30 min, 60 nM DNA, gel at 4 C; FP: 10 nM DNA)", "settings": "protein: recombinant; label: FAM; 30 bp duplex"}, "[2]": {"target": "T1, AIR-Dnmt3a2 (autoinhibition removed)", "assay": "EMSA; 1 uM protein, 100 uM AdoHcy; no difference from 76Tf/95Bf-G4; 20 mM HEPES-NaOH pH 7.5, 100 mM KCl, 1 mM EDTA, 1 mM DTT, 100 uM AdoHcy, 25 C (EMSA: + 6% glycerol, 30 min, 60 nM DNA, gel at 4 C; FP: 10 nM DNA)"}}}
{"binder": "AGGGAGTGAGTGAGTGAGTATA (ssDNA)", "note": "[22(GAGT)4f]", "values": [{"measurement": "binding signal", "setting": "Dnmt3a-CD", "value": "~4", "unit": "fold weaker than 19G4f"}, {"measurement": "binding signal", "setting": "[1]", "value": "~4", "unit": "fold weaker than 19G4f"}]}
{"binder": "B1", "values": [{"measurement": "binding result", "setting": "M.SssI", "value": "binds"}]}
{"binder": "B2", "values": [{"measurement": "binding result", "setting": "[2]", "value": "binds"}]}
